This data set in a line: soluble on expression in E. coli; label from the status in PepcDB or PDB records.
Take “MNSVGFYGKLAGRGDFVSRGLPNTFVEPWDAWLASGMRASQDELGAAWLDAYLTSPLWRFAIAPGLLGGEAVTGVVMPSIDRVGRYFPLTVACLLPANADLGGLVGGDDGWFEQVESLLLSTLEPEAEVEAFEQAVAQLPAPPCGPRIEQSLISGNLLRSEAVTPAQRLAALAQHACDGASHWWGRGSARISAGLMRYQGLPPAPAFGRFLTGEGEVIPLFPGIPG”: the “soluble on expression in E. coli” value was “soluble”. For “MNTILAQQIANEGGVEAWMIAQQHKSLLRFLTCGSVDDGKSTLIGRLLHDTLQIYEDQLSSLHNDSKRHGTQGEKLDLALLVDGLQAEREQGITIDVAYRYFSTERRKFIIADTPGHEQYTRNMATGASTCDLAILLIDARKGVLDQTRRHSFISTLLGIKHLVVAINKMDLVDYREETFARIREDYLTFAEQLPGDLDIRFVPLSALEGDNVAAQSANMRWYSGPTLLEVLETVDIQRAVDRQPMRFPVQYVNRPNLDFRGYAGTLASGSVKVGERIKVLPSGVESSVARIVTFDGDKEEACAGEAITLVLNDDIDISRGDLLLAANETLAPARHAAIDVVWMAEQPLAPGQSYDVKLAGKKTRARIEAIRYQIDINNLTQRDVESLPLNGIGLVEMTFDEPLALDIYQQNPVTGGLIFIDRLSNVTVGAGMVRELDERGATPPVEYSAFELELNALVRRHFPHWDARDLLGDKHGAA” the value was “not soluble”; for “MNTKARKYIPLTEATYYILLSLVKPMHGYGIMQLVEEMTNGEVKLGPGTLYGNTTKLLKEKLIVEVASTDRKKCYELTPFGKEVLELEYNRLQRSVRNGNSILGE”, “soluble”; for “MNTLFMHCRPGFEGEVCSEIADLAARLDVSGYAKARPDTACAEFICTEADGAERLMNGQRFDTLIFPRQWARGLFLDLPETDRISVILAQLSTFPTCGSLWLEVVDTNDGKELSNFCKKFEAPLRKALTQAGKLVDDPRKPRLLLTFKSGREVFLGLAEADNSAMWPMGIPRLKFPREAPSRSTLKLEEAWHHFIPRDQWDERLSGDMTGVDLGAAPGGWTYQLVRRGMLVTAIDNGPMAESLMDTGLVQHLMADGFTYKPRHPVDWMVCDIVEKPARNAALLETWLGEGLCREAVVNLKLPMKQRYAEVRRLLDRIEEGFQARGVRVSIGCKQLYHDREEVTCHLRRLDVAKAARK”, “not soluble”. For the sequence “MNTLYTLFATCPRGLETVLSQELESLGCTDVQVFDGGVSCRGGLEQVYAANLHSRTASRILLRLTKGTYRNERDIYKLAKNINWFNWFTLQQTFKVKVEAKRANVKSIQFVGLTVKDAVCDAFRDIYDARPSVDKAAPDVRIHAFLNERNVEIFIDTSGEALFKRGYRLDTGEAPLRENLAAGLLLSAGYDGTQPFQDPFCGSGTIAIEAAWIAARRAPGMMRRFGFEKLQNFDKTLWSDLRRRAEAQTRPVRAPIAGSDNDRRIVQTALDNARRAGVDDIVSFSVADAQSVRPNGENGIMVSNPPYGVRLEEVRALQALYPQLGTWLKKHYAGWLAAMFTGDREMPKFMCLSPKRKIPLYNGNIDCRLFLIDMVEGSNR”, the “soluble on expression in E. coli” value was “not soluble”. The same measure for “MNTNLAELPVRIFKILSEELQKDNIWIKIVEFDEDPIYYMKSTEIESFLKREKCCEQVLRKWGNRGQTVGSLLARLQFLSRTYEDEFDSIQFHLRRKFKPLRWIPDPEQQVTKEIDEGNIKLECKAQGFPCPEIKWFTKGSKEPVHIGRVYTILRCKCSNEHQYKCVAKNEIREGSPYSEIYRKAGKQFSSVIESEYVDVTSCIRDDELCESCKKYEMGRLSQILAEDQEKPENKVSPVRPNLDITLRAADKVALIMSNCSYVHLPELRTPHCDAQTLADALQKMNYKTVTLADLTLDEMRYFIRVYQKLIGNGVYAVFYFVGHGFEVNGQCYLLGVDAPADAHQPQHSMSMDWLLSIFRHKTPDLNLLLLDVCRKFVPYDAISAFVEYSEQFKKFHRAHRNMVYGYSTSGGVGAYEVKGEVNGVFMKYLKNHVQLEISVIDMLNKVLLDIGDDQKVCDLQVPEIRSTLTHPRSLADPLIFDGHTASFDNHTIHWRLMHELPTPATIRFETQQLVATIWFQFCGNFTNKVYVFASISDFRPCQEDTDMGENEELSENALNHRAFVEFPEELHCSDVREYNDDEEGVSMLWILSGLQKIKKEAGLTCEVHLRHVDDPEKTIEMKNVDIGHILITRIKCLQ”: “not soluble”; for “MNTTANPSNIIVGLSGGVDSSVTAALLKQQGYQVRGVFMQNWEDDDNDEYCSIKQDSFDAIAVADIIGIDIDIVNFAAQYKDKVFAYFLQEYSAGRTPNPDVLCNAEIKFKCFLDYAVGQGADTIATGHYARKEVRNGVHYLLKGLDRNKDQSYFLYRLKPFQLERAIFPLGGLEKPEVRRLAAEFKLPTAAKKDSTGICFIGERPFREFLQKYLPTDNGKMVTPEGKTVGEHVGLMFYTLGQRKGLGIGGAGEPWFVAAKDLTKNELIVVQGHDHPLLYTRSLVMNDLSFTLPERPKAGRYTCKTRYRMADAPCELRYLDDETAELVFDEPQWAVTPGQSAVLYDGDICLGGGIIQTTDKPVIITR”: “not soluble”. For “MNVSSSNEDTPNAPDMLSWCVHTQDNHPLPLPELKAKLLALGIDADTYALTTGLSMELEPTTLADAGYDRYQRPLLLTVDAARAWHAMRQAAVGDGIVLDAISGYRSYAYQFGILERKLAQGKTLQEILTVNAAPGFSEHHSGEALDIGMPGESPVEESFEGSSAFAWLHRHAGRFGFHLSYPRNNPHGIVYEPWHWRWRAR”, the “soluble on expression in E. coli” value is “not soluble”. For “MNVSVLNFGNTPVSFRQDGFLNATAIASHFGKLPKDYLKSEQTQQYISALAENLSVRRKILTEANQIVIVKRGGSEQGTWLHPKLAIHFARWLNPKFAVWCDEQIEILLNGKISDGIKTVTPKPTRALPDGLTGEQIEAVKKLHNALTKSAPKEAQARIAITLWSAVKSKFGCSYKEVPAEQFPEVLSVMGRVAVENGVLYGEVLDREPLPAPQPALPISGNALYDLAVAVRYGAWAIQMGRDVSLPLKQLGCKQAVTMWTVWAETRSRLKAAANALEALNAHADAEHAAKIRPMLPEIRNLSSV” the value was “not soluble”; for “MNVTEQNSHQILIQKLLVSIHYLTLFRDELKLVERTPSILGGEFPAHLVQSELGDIVAAIDTLDMQQRLIESTFWYEESAFKLMNKTLDIVDNWIKGVDHLIDLCQSKEVFQIIIGDKRIRVFGVLSDVFSSLKVSALSLKEAPIPDVLYEHIQRVNLEEEAFIKYYQSPKVPTGEFE”, “not soluble”. The same measure for “MNVYTFDFNDIKNQSDFYREFTQTFGLASEKVSDLDTLWDAVMSDILPLPLEIEFVHLPDKLRRRYGALILLFDEAEEELEGRLRFNVRH”: “not soluble”; for “MNYFNVGKIVNTQGLQGEMRVLSVTDFAEERFKKGAELVLFDEKDQFVQTVTIASHRKQKNFDIIKFKDMYHINTIEKYKGYSLKVAEEDLNDLDDGEFYYHEIIGLEVYEGDSLVGTIKEILQPGANDVWVVKRKGKRDLLLPYIPPVVLNVDIPSKRVDVEILEGLDDEDLEHHHHHH”: “soluble”; for “MNYQLVKQVRENNPLRKSFIDLAVKTFDLSFEEWYQQGYWTDAYIPYAFVERNKVIANASANIIDLRWQGEPRRYIQIGTVMTEPDHRNKGLAGQLIHHILQDWQQEADAFFLFANPTTVDFYPKFGFTRSEEYQYIMPVSPRAGDFRKLDMDSPDDVALLRHYYEKSNPFSPLRVEHNFGLLMFYCSAFMKHFVYYSAKNEAVVIAMQNGPVLICFDLFCDVGKSLSTLVNELADDHVYQAILGFTPSEDRLGEYEKIEGEDILFVYDQKENLFKDRKLMFPLLAHA”: “not soluble”. The same measure for “MNYTEHYHDWLRDAHAMEKQAESMLESMASRIENYPDIKARIEQHISETKHQITMLEEVLDRNGISRSVLKDSMSKMAAMGQSIGGMFPSDEIVKGSISGYVFEQFEIACYTSLLAAAKKAGDTASIPTIEAILKEEMQMADWLIKHIPQTTEQFLLRSEADGVEAKK”: “not soluble”; for “MNYVSLVLVSHSEEIAKGLKKLLKQIAPDVRIAAAGGSDGEIGTNALHIQEAIESVYSEKGTVVLFDLGSALLNAELALEMADRKERVRIADAPLVEGAYIAAVEAGLGKPLEEVVQACEAAKEMVKIAK”: “not soluble”; for “MPADIMEKNSSSPVAASVNTTPDKPKTASEHRKSSKPIMEKRRRARINESLSQLKTLILDALKKDSSRHSKLEKADILEMTVKHLRNLQRAQMTAALSTDPSVLGKYRAGFSECMNEVTRFLSTCEGVNTEVRTRLLGHLANCMTQINAMTYPGQPHPALQAPPPPPPGPGGPQHAPFAPPPPLVPIPGGAAPPPGGAPCKLGSQAGEAAKVFGGFQVVPAPDGQFAFLIPNGAFAHSGPVIPVYTSNSGTSVGPNAVSPSSGPSLTADSMWRPWRN”: “soluble”.

As for “MPALSGGDGVIRFQQVSKAYRGGRQALQKVDFHLRRGEMAFLGGHSGAGKSTLLKLICAIERPTDGKISFNGHDITRIPNKDIPFLRRNIGIVFQDHRLLMDRSIYDNVALPMRIESISENEIKRRVSAALDKTGLLDKARCLPSQLSGGEQQRVGIARAVVNRPTLLLADEPTGNLDPELSSRVLRLFEEFNRAGVTILLATHDIHLVNSRPQYRHLELNQGFLSEVADYGR”, the “soluble on expression in E. coli” value is “not soluble”.

For “MPCVFQIWEKGMEKQEIGIYGREKMFMRKKENELQIDWKHFYLGVLALVIPMALQNLINVGVTAADVVMLGRVGETALSGSSLAGQVQY”, the “soluble on expression in E. coli” value is “not soluble”. For “MPDLTKARCPCRGCNKVANNAEEVEELFGLRNMGDGTIRVQSYCRECRGLHCEASNPKCNHHA” the value was “not soluble”; for “MPDSSQLVIGAGLDGLPIAQAMRLANRHGLVAGATGTGKTVTLQRLAEAFSDAGVAVFAADIKGDLCGLGAAGNPQGKVAERIAGMPWLKHQPQAYPVTLWDIHGQSGHPLRTTLSEMGPLLLGSLLELTDSQQSALYAAFKVADREGLLLLDLKDLKALLNHLKDNPQLLGDDAALMTTGSSQALLRRLATLEQQGAEALFGEPALQLEDILQPAADGRGRIHLLDASRLVHEAPKVYATFLLWLLAELFEQLPERGDADKPLLALFFDEAHLLFAGTPKALQDRLEQVVRLIRSKGVGVYFVTQSPGDLPDNVLAQLGLRIQHGLRAFTAKEQKSLRAVADGFRPNPAFDAQAVLTELGIGEALVGTLQDKGTPEMVQRVLVAPPQSRIGPLTEAERQALIASSPLLGRYDKPIDRESAYEVLLGRKELAPQDQQPSGKAAAEEPSLADRAGEFLGTAAGQALKSAMRQAANQLGRQLVRGLMGSLLGGSKRR”, “soluble”; for “MPEDILVDIKRDYVLSKLRDNERIDGRGFDEFRKVEIIPNVIEKAEGSALVKLGDTQVVVGVKMQPGEPYPDTPDRGVIIVNAELVPLASPTFEPGPPDENSIELARVVDRGIRESEAVDLSKLVIEEGEKVWIVFVDIHALDDDGNLLDASALAAIAALMNTKVPAERFDLGEDYLLPVRDLPVSVTSLIVGNKYLVDPSREEMSVGDTTLTITTDKDDNVVAMQKSGGYLLDEKLFDELLDVSINCARKLREKFKEI”, “soluble”. Consider “MPEEDLVELKFRLYDGSDVGPFQYSPTATVSMLKERIVSEWPKDKKIVPKSASDIKLINAGKILENGKTVAQCKAPFDDLPKSVITMHVVVQLSPTKARPEKKIEKEEAPQRSFCSCTIM”, for which the “soluble on expression in E. coli” value was “soluble”.

Source of the values: the DeepSol protein solubility set.
